Assay results from publication PMC5286519, “Two strategies to engineer flexible loops for improved enzyme thermostability” (Scientific Reports, 2017).
Where a chain is given by its changes, count along the chain named. In names and notes the source's numbering stands.

B1: Escherichia coli transketolase (TK); wild-type E. coli TK (Escherichia coli K-12) (protein)
chain: MSSRKELANAIRALSMDAVQKAKSGHPGAPMGMADIAEVLWRDFLKHNPQNPSWADRDRFVLSNGHGSMLIYSLLHLTGYDLPMEELKNFRQLHSKTPGHPEVGYTAGVETTTGPLGQGIANAVGMAIAEKTLAAQFNRPGHDIVDHYTYAFMGDGCMMEGISHEVCSLAGTLKLGKLIAFYDDNGISIDGHVEGWFTDDTAMRFEAYGWHVIRDIDGHDAASIKRAVEEARAVTDKPSLLMCKTIIGFGSPNKAGTHDSHGAPLGDAEIALTREQLGWKYAPFEIPSEIYAQWDAKEAGQAKESAWNEKFAAYAKAYPQEAAEFTRRMKGEMPSDFDAKAKEFIAKLQANPAKIASRKASQNAIEAFGPLLPEFLGGSADLAPSNLTLWSGSKAINEDAAGNYIHYGVREFGMTAIANGISLHGGFLPYTSTFLMFVEYARNAVRMAALMKQRQVMVYTHDSIGLGEDGPTHQPVEQVASLRVTPNMSTWRPCDQVESAVAWKYGVERQDGPTALILSRQNLAQQERTEEQLANIARGGYVLKDCAGQPELIFIATGSEVELAVAAYEKLTAEGVKARVVSMPSTDAFDKQDAAYRESVLPKAVTARVAVEAGIADYWYKYVGLNGAIVGMTTFGESAPAELLFEEFGFTVDNVVAKAKELL
notes: full-length tktA product, N-terminal His6-tag (kept, no cleavage told), expressed in E. coli XL10-Gold from plasmid pQR791, Ni-NTA purified, dialysed into ThDP and MgCl2 (holo form), homodimer
B2: Escherichia coli transketolase (TK); wild-type E. coli TK (Escherichia coli K-12; D143K) (protein)
chain: B1 chain with D143K
notes: as for B1
B3: Escherichia coli transketolase (TK); wild-type E. coli TK (Escherichia coli K-12; A282P) (protein)
chain: B1 chain with A282P
notes: as for B1
B4: Escherichia coli transketolase (TK); wild-type E. coli TK (Escherichia coli K-12; I189H) (protein)
chain: B1 chain with I189H
notes: as for B1
B5: Escherichia coli transketolase (TK); wild-type E. coli TK (Escherichia coli K-12; H192P) (protein)
chain: B1 chain with H192P
notes: as for B1
B6: Escherichia coli transketolase (TK); wild-type E. coli TK (Escherichia coli K-12; A282P/H192P) (protein)
chain: B1 chain with H192P, A282P
notes: as for B1

These proteins were tested on O=CCO (assay: HPLC of erythrulose formed, Michaelis-Menten fit). Details: 50 mM Li-HPA (saturating co-substrate), 4-80 mM GA, 2.4 mM ThDP, 9 mM MgCl2, 50 mM Tris-HCl pH 7.0, 22 °C.
Format: biochemical, Escherichia coli
Text: HPLC of erythrulose formed, Michaelis-Menten fit on Escherichia coli transketolase (TK); wild-type E. coli TK

B1 was tested. Which Km did it give?
The Km was 20.5 (1.3) mM.

What about the kcat of the same protein?
Its kcat is 62.3 s⁻¹.

What about the kcat/Km of the same protein?
The kcat/Km was 3040 M⁻¹ s⁻¹.

What does the source list for B2?
Km: 16.1 (1.2) mM; kcat: 48.1 s⁻¹; kcat/Km: 2990 M⁻¹ s⁻¹

Which results are given for B3?
Km: 17.6 (2.1) mM; kcat: 45.5 s⁻¹; kcat/Km: 2580 M⁻¹ s⁻¹

Which Km does the source give for B4 here?
Its Km is 18.0 (0.8) mM.

Which results are given for B5?
Km: 18.0 (1.2) mM; kcat: 65.5 s⁻¹; kcat/Km: 3640 M⁻¹ s⁻¹

What does the source list for B6?
Km: 23.3 (1.4) mM; kcat: 81.2 s⁻¹; kcat/Km: 3480 M⁻¹ s⁻¹
